{
  "source": "patent US7927849B2",
  "about": "“Laccase enzyme and use thereof” (AB Enzymes OY, priority 2004, dated 2011)",
  "molecules": {"B1": {"name": "TaLcc1: Recombinant Thielavia arenaria ALKO4197 laccase 1 (SEQ ID NO: 12) produced in Trichoderma reesei strains RF5597/RF5598 (protein)", "chain": "MKSWAAAVALMVGILSPHAAAAPPANPVQRDMLQVLEARQSGPTCNTPSNRACWTNGFDINTDYEVSTPNTGRTVAYQLTLTEKENWIGPDGVLKNVVMLVNDKIIGPTIRANWGDNIEVTVINNLKTNGTSMHWHGLRQLGNVFNDGANGVTECPIPPKGGRKTYKFRATQYGTSWYHSHFSAQYGNGVVGTIQIDGPASLPYDIDLGVFPLMDYYYRSADELVHFTQSNGAPPSDNVLFNGTARHPETGAGQWYNVTLTPGKRHRLRIINTSTDNHFQVSLVGHNMTVIATDMVPVNAFTVSSLFLAVGQRYDVTIDANSPVGNYWFNVTFGDGLCGSSNNKFPAAIFRYQGAPATLPTDQGLPVPNHMCLDNLNLTPVVTRSAPVNNFVKRPSNTLGVTLDIGGTPLFVWKVNGSAINVDWGKPILDYVMSGNTSYPVSDNIVQVDAVDQWTYWLIENDPTNPIVSLPHPMHLHGHDFLVLGRSPDELPSAGVRHIFDPAKDLPRLKGNNPVRRDVTMLPAGGWLLLAFKTDNPGAWLFHCHIAWHVSGGLSVDFLERPNDLRTQLNSNAKRADRDDFNRVCREWNAYWPTNPFPKIDSGLRHRFVEESEWMVR", "modifications": "Thielavia arenaria ALKO4197; (1)..(617) Deduced amino acid sequence of Thielavia arenaria ALKO4197 laccase 1 (Ta Lcc1)"}},
  "key": {"[1]": {"assay": "Specific activity on guaiacol", "format": "biochemical", "details": "25 mM MES buffer, pH 5.5", "method": "(§1) Specific activities of the purified Thielavia laccase were determined towards different laccase substrates."}, "[2]": {"assay": "Specific activity on ABTS", "format": "biochemical", "details": "25 mM succinate buffer pH 4.5, 25° C.", "method": "The activity assay was carried out in accordance with the method developed by Niku-Paavola et al. (1988). The sample was diluted with 0.025 M succinate buffer, pH 4.5. […] The activity is expressed as nano katals.\nas §1"}, "Decolorization of dyes [3]": {"assay": "Decolorization of dyes", "set-up": "key: −: no visually detectable change; +: visually detectable fading of the colour; ++: considerable fading of the colour; +++: complete/almost complete decolorization", "details": "dye 12 mg/100 ml, 50° C., pH 6", "method": "(§2) The TaLcc1 laccase preparation from strain RF5597 was tested for its ability to decolourize different dyes in the presence or absence of the methyl syringate mediator (Example 7). The experiments were carried out in 250 ml shake flasks containing 100 ml of dye dissolved in citrate phosphate buffer pH 6. Dye concentration 12 mg/100 ml was used. Enzyme was dosed 200 nkat (or 20 nkat) per 100 ml and the mediator 10 (or 1) mg per 100 ml. The shake flasks were incubated at 50° C. for 30, 90 and 150 minutes. Samples of 3.5 ml were taken in test tubes for visual evaluation."}, "[4]": {"assay": "Stain removal with laccases, tea", "details": "60 min, pH 6", "method": "(§3) The TaLcc1 (RF5598) and Denilite II Base laccase preparations were tested for their ability to remove stains. The following artificially soiled test cloths were used: grass soiling (Art. 164, EMPA Testmaterialen, Germany), tea soiling (Art. 167, EMPA Testmaterialen, Germany). The fabric was cut in 5.8×5.8 cm swatches. Laccase treatments were performed in LP-2 Launder Ometer as follows. About 5 g of soiled fabrics were loaded into 1.2 liter containers containing 150 ml Mc Ilvaine's citrate phosphate buffer pH 6 and the containers were temperated. Enzymes with or without the mediator (methyl syringate, DeniLite II Assist, Novozymes) were dosed as laccase activity units (Example 7). Enzyme dosage was 200 nkat/g and mediator dosage 10 mg/g of the weight of fabric, except at 40° C. also dosages of 20 nkat/g and 2 mg/g were used. The Launder Ometer was run at 40, 50 or 60° C. and pH 6 for 60 min. After that the swatches were carefully rinsed under running water and in shake flasks containing warm water and dried in the air.\n(§4) The stain removal effect was evaluated by measuring the colour as reflectance values using L*a*b* color space coordinates (Example 7). The colour of the swatches was measured before and after the laccase treatment."}, "Decolorization of dyes [5]": {"assay": "Decolorization of dyes", "set-up": "key to Decolorization of Indigocarmine, Time 30 min / Decolorization of Indigocarmine, Time 90 min: −: no visually detectable change; +: visually detectable fading of the colour; ++: considerable fading of the colour; +++: complete/almost complete decolorization", "details": "50° C., pH 6; for Decolorization of Indigocarmine, Time 30 min / Decolorization of Indigocarmine, Time 90 min: dye 12 mg/100 ml", "method": "as §2"}, "[6]": {"assay": "Specific activity on syringaldazine", "format": "biochemical", "details": "25 mM MES buffer, pH 5.5", "method": "as §1"}, "Specific activity on DMP": {"assay": "Specific activity on DMP", "format": "biochemical", "details": "25 mM MES buffer, pH 5.5", "method": "as §1"}, "[7]": {"assay": "Stain removal with laccases, grass", "details": "60 min, pH 6", "method": "as §3, §4"}, "[8]": {"details": "enzyme 20 nkat/100 ml, mediator 0 mg/100 ml"}, "[9]": {"details": "enzyme 20 nkat/100 ml, mediator 1 mg/100 ml"}, "[10]": {"details": "enzyme 200 nkat/100 ml, mediator 0 mg/100 ml"}, "[11]": {"details": "enzyme 200 nkat/100 ml, mediator 10 mg/100 ml"}, "[12]": {"details": "20 nkat/g, mediator 2 mg/g, 40° C."}, "[13]": {"details": "200 nkat/g, mediator 0 mg/g, 40° C."}, "[14]": {"details": "200 nkat/g, mediator 0 mg/g, 60° C."}, "[15]": {"details": "200 nkat/g, mediator 10 mg/g, 40° C."}, "[16]": {"details": "200 nkat/g, mediator 10 mg/g, 50° C."}, "[17]": {"details": "200 nkat/g, mediator 10 mg/g, 60° C."}},
  "data": [
    {"molecule": "B1", "values": [
      {"measurement": "Specific activity on guaiacol", "setting": "[1]", "result": 61, "unit": "nkat/mg"},
      {"measurement": "Specific activity on ABTS", "setting": "[2]", "result": 910, "unit": "nkat/mg"},
      {"measurement": "Decolorization of Remazol Brilliant Blue, Time 30 min", "setting": "Decolorization of dyes [3]; [8]", "result": "−"},
      {"measurement": "Decolorization of Remazol Brilliant Blue, Time 90 min", "setting": "Decolorization of dyes [3]; [8]", "result": "−"},
      {"measurement": "Decolorization of Remazol Brilliant Blue, Time 30 min", "setting": "Decolorization of dyes [3]; [9]", "result": "−"},
      {"measurement": "Decolorization of Remazol Brilliant Blue, Time 90 min", "setting": "Decolorization of dyes [3]; [9]", "result": "−"},
      {"measurement": "Decolorization of Cibacron Brilliant Red 3B-P, Time 30 min", "setting": "Decolorization of dyes [3]; [10]", "result": "−"},
      {"measurement": "Decolorization of Cibacron Brilliant Red 3B-P, Time 90 min", "setting": "Decolorization of dyes [3]; [10]", "result": "−"},
      {"measurement": "Decolorization of Pontamine Bast Orange GRN, Time 30 min", "setting": "Decolorization of dyes [3]; [10]", "result": "−"},
      {"measurement": "Decolorization of Pontamine Bast Orange GRN, Time 90 min", "setting": "Decolorization of dyes [3]; [10]", "result": "−"},
      {"measurement": "Decolorization of Remazol Brilliant Blue, Time 30 min", "setting": "Decolorization of dyes [3]; [10]", "result": "−"},
      {"measurement": "Decolorization of Remazol Brilliant Blue, Time 90 min", "setting": "Decolorization of dyes [3]; [10]", "result": "−"},
      {"measurement": "Decolorization of Cibacron Brilliant Red 3B-P, Time 30 min", "setting": "Decolorization of dyes [3]; [11]", "result": "+++"},
      {"measurement": "Decolorization of Cibacron Brilliant Red 3B-P, Time 90 min", "setting": "Decolorization of dyes [3]; [11]", "result": "+++"},
      {"measurement": "Decolorization of Pontamine Bast Orange GRN, Time 30 min", "setting": "Decolorization of dyes [3]; [11]", "result": "+"},
      {"measurement": "Decolorization of Pontamine Bast Orange GRN, Time 90 min", "setting": "Decolorization of dyes [3]; [11]", "result": "+"},
      {"measurement": "Decolorization of Remazol Brilliant Blue, Time 30 min", "setting": "Decolorization of dyes [3]; [11]", "result": "++"},
      {"measurement": "Decolorization of Remazol Brilliant Blue, Time 90 min", "setting": "Decolorization of dyes [3]; [11]", "result": "++"},
      {"measurement": "Tea L*", "setting": "[4]; [12]", "result": 77.17},
      {"measurement": "Tea a*", "setting": "[4]; [12]", "result": 4.65},
      {"measurement": "Tea b*", "setting": "[4]; [12]", "result": 24.40},
      {"measurement": "Tea L*", "setting": "[4]; [13]", "result": 75.99},
      {"measurement": "Tea a*", "setting": "[4]; [13]", "result": 5.59},
      {"measurement": "Tea b*", "setting": "[4]; [13]", "result": 23.54},
      {"measurement": "Tea L*", "setting": "[4]; [14]", "result": 76.98},
      {"measurement": "Tea a*", "setting": "[4]; [14]", "result": 4.98},
      {"measurement": "Tea b*", "setting": "[4]; [14]", "result": 21.20},
      {"measurement": "Tea L*", "setting": "[4]; [15]", "result": 78.77},
      {"measurement": "Tea a*", "setting": "[4]; [15]", "result": 3.93},
      {"measurement": "Tea b*", "setting": "[4]; [15]", "result": 24.97},
      {"measurement": "Tea L*", "setting": "[4]; [16]", "result": 79.52},
      {"measurement": "Tea a*", "setting": "[4]; [16]", "result": 3.45},
      {"measurement": "Tea b*", "setting": "[4]; [16]", "result": 23.74},
      {"measurement": "Tea L*", "setting": "[4]; [17]", "result": 81.69},
      {"measurement": "Tea a*", "setting": "[4]; [17]", "result": 2.91},
      {"measurement": "Tea b*", "setting": "[4]; [17]", "result": 22.29},
      {"measurement": "Decolorization of Indigocarmine, Time 30 min", "setting": "Decolorization of dyes [5]; [9]", "result": "+"},
      {"measurement": "Decolorization of Indigocarmine, Time 90 min", "setting": "Decolorization of dyes [5]; [9]", "result": "+++"},
      {"measurement": "Decolorization of Indigocarmine, Time 30 min", "setting": "Decolorization of dyes [5]; [10]", "result": "−"},
      {"measurement": "Decolorization of Indigocarmine, Time 90 min", "setting": "Decolorization of dyes [5]; [10]", "result": "−"},
      {"measurement": "Decolorization of Indigocarmine, Time 30 min", "setting": "Decolorization of dyes [5]; [11]", "result": "+++"},
      {"measurement": "Decolorization of Indigocarmine, Time 90 min", "setting": "Decolorization of dyes [5]; [11]", "result": "+++"},
      {"measurement": "time until blue colour of Indigocarmine had turned to light yellow", "setting": "Decolorization of dyes [5]; in the presence of the mediator", "result": "< 30", "unit": "min"},
      {"measurement": "Specific activity on syringaldazine", "setting": "[6]", "result": 340, "unit": "nkat/mg"},
      {"measurement": "Specific activity on DMP", "setting": "Specific activity on DMP", "result": 285, "unit": "nkat/mg"},
      {"measurement": "Grass L*", "setting": "[7]; [12]", "result": 80.16},
      {"measurement": "Grass a*", "setting": "[7]; [12]", "result": "−0.73"},
      {"measurement": "Grass b*", "setting": "[7]; [12]", "result": 16.20},
      {"measurement": "Grass L*", "setting": "[7]; [13]", "result": 80.25},
      {"measurement": "Grass a*", "setting": "[7]; [13]", "result": "−4.22"},
      {"measurement": "Grass b*", "setting": "[7]; [13]", "result": 17.41},
      {"measurement": "Grass L*", "setting": "[7]; [14]", "result": 79.38},
      {"measurement": "Grass a*", "setting": "[7]; [14]", "result": "−4.19"},
      {"measurement": "Grass b*", "setting": "[7]; [14]", "result": 17.77},
      {"measurement": "Grass L*", "setting": "[7]; [15]", "result": 80.34},
      {"measurement": "Grass a*", "setting": "[7]; [15]", "result": 0.47},
      {"measurement": "Grass b*", "setting": "[7]; [15]", "result": 16.51},
      {"measurement": "Grass L*", "setting": "[7]; [16]", "result": 80.60},
      {"measurement": "Grass a*", "setting": "[7]; [16]", "result": "−0.18"},
      {"measurement": "Grass b*", "setting": "[7]; [16]", "result": 17.65},
      {"measurement": "Grass L*", "setting": "[7]; [17]", "result": 80.6},
      {"measurement": "Grass a*", "setting": "[7]; [17]", "result": 0.02},
      {"measurement": "Grass b*", "setting": "[7]; [17]", "result": 18.71}
    ]}
  ]
}
